T1: CCL8 N-loop peptide (human, biotin-Ahx at the N-terminus; amidated at the C-terminus)
T1 construct: Synthetic peptide (GenScript), captured on Neutravidin-coated ELISA plates
T1 peptide: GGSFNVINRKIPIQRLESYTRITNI

T2: CCL7 N-loop peptide (human, biotin-Ahx at the N-terminus; amidated at the C-terminus)
T2 peptide: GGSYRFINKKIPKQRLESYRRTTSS

T3: CCL13 N-loop peptide (human, biotin-Ahx at the N-terminus; amidated at the C-terminus)
T3 peptide: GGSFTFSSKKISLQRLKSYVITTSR

T4: CCL11 N-loop peptide (human, biotin-Ahx at the N-terminus; amidated at the C-terminus)
T4 peptide: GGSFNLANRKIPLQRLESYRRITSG

T5: CCL2 N-loop peptide (human, biotin-Ahx at the N-terminus; amidated at the C-terminus)
T5 peptide: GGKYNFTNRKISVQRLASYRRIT

T6: CXCL16 N-loop peptide (human, biotin-Ahx at the N-terminus; amidated at the C-terminus)
T6 construct: Synthetic peptide, captured on Neutravidin-coated ELISA plates
T6 peptide: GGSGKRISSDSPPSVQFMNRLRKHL

T7: CCL20 N-loop peptide (human, biotin-Ahx at the N-terminus; amidated at the C-terminus)
T7 construct: Synthetic peptide, captured on Neutravidin-coated ELISA plates
T7 peptide: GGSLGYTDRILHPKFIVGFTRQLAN


How the values were obtained:
[1] = biological target: T1, CCL8 N-loop peptide; assay: ELISA, biotinylated CCL8 N-loop peptide on neutravidin plate, anti-human IgG-HRP, OD450 nm
Protocol: (§1) To evaluate the antibodies' binding to chemokine peptides, 96-well plates (ThermoFisher, 442404) were coated with 50 μl per well of a 2 μg/ml Neutravidin (Life Technologies, 31000) solution in PBS, overnight at room temperature. Plates were washed 4 times with washing buffer (PBS+0.05% Tween-20 [Sigma-Aldrich]) and incubated with 50 μl per well of a 50 nM biotinylated peptide solution in PBS for 1 h at room temperature. After washing 4 times with washing buffer, plates were incubated with 200 μl per well of blocking buffer (PBS+2% BSA+0.05% Tween-20) for 2 h at room temperature. Plates were then washed 4 times with washing buffer, and serial dilutions of monoclonal antibodies or plasma were added in PBS +0.05% Tween-20 and incubated for 1 h at room temperature. To screen for the presence of anti-chemokine IgGs, plasma samples were assayed (unless otherwise stated) at 1:50 starting dilution followed by 3 fourfold serial dilutions (1:200, 1:800, 1:3200). Monoclonal antibodies were tested at 5 μg/ml starting concentration followed by 11 threefold serial dilutions. Plates were subsequently washed 4 times with washing buffer and incubated with anti-human IgG secondary antibody conjugated to horseradish peroxidase (HRP) (GE Healthcare, NA933) at a 1:5000 dilution in PBS+0.05% Tween-20. Finally, after washing 4 times with washing buffer, plates were developed by the addition of 50 μl per well of the HRP substrate TMB (ThermoFisher, 34021) for 9 min. The developing reaction was stopped with 50 μl per well of a 1 M H₂SO₄ solution, and absorbance was measured at 450 nm with an ELISA microplate reader (BioTek) with Gen5 software. A positive control (broadly reactive plasma from donor CLM70) and a negative control (uninfected participant) samples were included in each experiment. The Area Under the Curve (AUC) was obtained from two independent experiments and plotted with GraphPad Prism.

[2] = biological target: T2, CCL7 N-loop peptide; assay: ELISA on biotinylated N-loop peptide (FIG. 2D)
Protocol: as §1

[3] = biological target: T3, CCL13 N-loop peptide; assay: ELISA on biotinylated N-loop peptide (FIG. 2D)
Protocol: as §1

[4] = biological target: T4, CCL11 N-loop peptide; assay: ELISA on biotinylated N-loop peptide (FIG. 2D)
Protocol: as §1

[5] = biological target: T5, CCL2 N-loop peptide; assay: ELISA on biotinylated N-loop peptide (FIG. 2D)
Protocol: as §1

[6] = biological target: SARS-CoV-2 Spike (S) protein (SARS-CoV-2, UniProt P0DTC2 14-1208); assay: ELISA on coated Spike protein (FIG. 2E)
Protocol: Plates were washed 4 times with washing buffer (PBS+0.05% Tween-20 [Sigma-Aldrich]) and incubated with 50 μl per well of a 50 nM biotinylated peptide solution in PBS for 1 h at room temperature. After washing 4 times with washing buffer, plates were incubated with 200 μl per well of blocking buffer (PBS+2% BSA+0.05% Tween-20) for 2 h at room temperature. Plates were then washed 4 times with washing buffer, and serial dilutions of monoclonal antibodies or plasma were added in PBS +0.05% Tween-20 and incubated for 1 h at room temperature. […] Monoclonal antibodies were tested at 5 μg/ml starting concentration followed by 11 threefold serial dilutions. Plates were subsequently washed 4 times with washing buffer and incubated with anti-human IgG secondary antibody conjugated to horseradish peroxidase (HRP) (GE Healthcare, NA933) at a 1:5000 dilution in PBS+0.05% Tween-20. […] The developing reaction was stopped with 50 μl per well of a 1 M H₂SO₄ solution, and absorbance was measured at 450 nm with an ELISA microplate reader (BioTek) with Gen5 software. […] The Area Under the Curve (AUC) was obtained from two independent experiments and plotted with GraphPad Prism.

[7] = biological target: T2, CCL7 N-loop peptide; assay: ELISA, biotinylated CCL7 N-loop peptide on neutravidin plate, OD450 nm
Protocol: as §1, with “Plates were subsequently washed 4 times with washing buffer and incubated with anti-human IgG secondary antibody conjugated to horseradish peroxidase (HRP) (GE Healthcare, NA933) at a 1:5000 dilution in PBS+0.05% Tween-20. Finally, after washing 4 times with washing buffer, plates were developed by the addition of 50 μl per well of the HRP substrate TMB (ThermoFisher, 34021) for 9 min.” left out, “A positive control (broadly reactive plasma from donor CLM70) and a negative control (uninfected participant) samples were included in each experiment. The Area Under the Curve (AUC) was obtained from two independent experiments and plotted with GraphPad Prism.” left out

[8] = biological target: T4, CCL11 N-loop peptide; assay: ELISA, biotinylated CCL11 N-loop peptide on neutravidin plate, OD450 nm
Protocol: as §1, with “Plates were subsequently washed 4 times with washing buffer and incubated with anti-human IgG secondary antibody conjugated to horseradish peroxidase (HRP) (GE Healthcare, NA933) at a 1:5000 dilution in PBS+0.05% Tween-20. Finally, after washing 4 times with washing buffer, plates were developed by the addition of 50 μl per well of the HRP substrate TMB (ThermoFisher, 34021) for 9 min.” left out, “A positive control (broadly reactive plasma from donor CLM70) and a negative control (uninfected participant) samples were included in each experiment. The Area Under the Curve (AUC) was obtained from two independent experiments and plotted with GraphPad Prism.” left out

[9] = biological target: T3, CCL13 N-loop peptide; assay: ELISA, biotinylated CCL13 N-loop peptide on neutravidin plate, OD450 nm
Protocol: as §1, with “Plates were subsequently washed 4 times with washing buffer and incubated with anti-human IgG secondary antibody conjugated to horseradish peroxidase (HRP) (GE Healthcare, NA933) at a 1:5000 dilution in PBS+0.05% Tween-20. Finally, after washing 4 times with washing buffer, plates were developed by the addition of 50 μl per well of the HRP substrate TMB (ThermoFisher, 34021) for 9 min.” left out, “A positive control (broadly reactive plasma from donor CLM70) and a negative control (uninfected participant) samples were included in each experiment. The Area Under the Curve (AUC) was obtained from two independent experiments and plotted with GraphPad Prism.” left out

[10] = biological target: T5, CCL2 N-loop peptide; assay: ELISA, biotinylated CCL2 N-loop peptide on neutravidin plate, OD450 nm
Protocol: as §1, with “Plates were subsequently washed 4 times with washing buffer and incubated with anti-human IgG secondary antibody conjugated to horseradish peroxidase (HRP) (GE Healthcare, NA933) at a 1:5000 dilution in PBS+0.05% Tween-20. Finally, after washing 4 times with washing buffer, plates were developed by the addition of 50 μl per well of the HRP substrate TMB (ThermoFisher, 34021) for 9 min.” left out, “A positive control (broadly reactive plasma from donor CLM70) and a negative control (uninfected participant) samples were included in each experiment. The Area Under the Curve (AUC) was obtained from two independent experiments and plotted with GraphPad Prism.” left out

[11] = biological target: T6, CXCL16 N-loop peptide; assay: ELISA, biotinylated CXCL16 N-loop peptide on neutravidin plate, anti-human IgG-HRP, OD450 nm
Protocol: as §1

[12] = biological target: T7, CCL20 N-loop peptide; assay: ELISA, biotinylated CCL20 N-loop peptide on neutravidin plate, anti-human IgG-HRP, OD450 nm
Protocol: as §1, with “Plates were subsequently washed 4 times with washing buffer and incubated with anti-human IgG secondary antibody conjugated to horseradish peroxidase (HRP) (GE Healthcare, NA933) at a 1:5000 dilution in PBS+0.05% Tween-20. Finally, after washing 4 times with washing buffer, plates were developed by the addition of 50 μl per well of the HRP substrate TMB (ThermoFisher, 34021) for 9 min.” left out, “A positive control (broadly reactive plasma from donor CLM70) and a negative control (uninfected participant) samples were included in each experiment. The Area Under the Curve (AUC) was obtained from two independent experiments and plotted with GraphPad Prism.” left out

Row | Binder | EC50 (read off the curve) [1] [ng/mL] | binding result [2] | binding result [3] | binding result [4] | binding result [5] | binding result [6] | also measured
1 | aCCL8.003 (antibody, human IgG1, V domains shown, also called VH4-39/VK4-1 antibody; anti-CCL8 antibody) VH: QLQLQESGPGLVKPSETLSLTCTVSGDSVSSSFYFWGWVRQPPGKGLEWIGSIYYTGDTYYKPSLKSRVTISMNTSKNQFSLRLSSVTAADTAVYYCATEFCTSGICHPASDSWGQGTLVTVSS VL: DIVMTQSPDSLAVSLGERATINCKSSQSVLLSANNKNCLAWFQQKPGQPPKLLIYWASTRESGVPDRFSGSGSGTDFTLTISSLQAEDVAIYYCQQYYKAPRTFGQGTKVEIK | ~10 | no binding (tested: 5 µg/ml starting concentration) | no binding (tested: 5 µg/ml starting concentration) | no binding (tested: 5 µg/ml starting concentration) | no binding (tested: 5 µg/ml starting concentration) | no binding | –
2 | aCCL8.004 (antibody, human IgG1, V domains shown, also called VH4-39/VK4-1 antibody; anti-CCL8 antibody) VH: QVQLQESGPGLVKPAETLSLTCIVSGDSVSSPSYFWGWIRQPPGKGLEWIGATWFNGDTYYNPSLQSRVSISMDMSLNRIYLSLNSVTAADTAVYFCATEHCFDEICSPASDSWGQGTLVTVSS VL: DIVMTQSPDSLAVSLGERATISCMSSQSVFFSSNNENCLAWFQQKPGQPPKLLIYWASTRASGVPDRFSGSGSGTDFTLTISSLQAEDVAVYYCQQYLKAPRTFGQGTKVEIK | ~10 | no binding (tested: 5 µg/ml starting concentration) | no binding (tested: 5 µg/ml starting concentration) | no binding (tested: 5 µg/ml starting concentration) | no binding (tested: 5 µg/ml starting concentration) | no binding | –
3 | aCCL8.005 (antibody, human IgG1, V domains shown, also called VH4-39/VK4-1 antibody; anti-CCL8 antibody) VH: QLQLQESGPGLVKPSETLSLTCTVSGDSVSSSFYFWGWVRQPPGKGLEWIGGTYYTGDTYHNPSLKSRLTISMDTSKNQFSLRLSSVTAADTAVYYCATEFCINGICRPASDSWGQGTLVTVSS VL: DIVMTQSPDSLAVSLGERATINCKSSQSVLLSSNNKNCLAWFQQRPGQPPKLLIYWASTRESGVPDRFSGSGSGTDFTLTISSLQAEDVAIYYCQQYYKAPRTFGQGTKVEIK | ~10 | – | – | – | – | – | binding result [7]: no binding (tested: 5000 ng/ml); binding result [8]: no binding (tested: 5000 ng/ml); binding result [9]: no binding (tested: 5000 ng/ml); binding result [10]: no binding (tested: 5000 ng/ml)
4 | aCXCL16.002 (antibody, human IgG1, V domains shown, also called anti-CXCL16 N-loop antibody) VH: EVQLVESGGGLSQPGWSLRLSCAASGLTVTRNYMSWVRQAPGKGLEWVSTLWTDGQKFYADSVKGRFTVSRDSYTNTLNLEMSGLRAEDTAVYFCTRDKVVPVRITPDYHYYGMDVWGQGTTVTVSS VL: DIQLTQSPSFLSASVGDRVTITCRASQGVRRYLAWYQQKPGKAPKFLIYGASSLHTGVPSRFSGGGSDTEFTLTISNLQTEDFATYYCQQLDTYPLTFGGGTKVEIK | – | – | – | – | – | – | binding result [11]: binds
5 | aCXCL16.001 (antibody, human IgG1, V domains shown, also called anti-CXCL16 N-loop antibody) VH: EVQLVESGGGLVKPGESLTLSCVASGYPFANAWMSWVRQAPGKGLEWVGRIKTKSEGETTDYAPLVRGRFTISRDDSKTTVFLQMNSLKTEDTGMYYCTTVFFWGRGTLVTVSS VL: SYELTQPPSVSVSPGQTARITCSGDALSQQYLFWHQQRPGQAPKVVISKDTERPSGIPERFSGSISGTTGTLTISGVQTEDEADYYCHSTDISDSYWVFGGGTKLTVL | – | – | – | – | – | – | EC50 (read off the curve) [11]: ~100 ng/mL
6 | aCCL20.001 (antibody, V domains shown, also called anti-CCL20 N-loop antibody) VH: QVQLVQSGAEVKKPGASVKISCKASGYTFTNHYMHWVRQAPGVGLEWMGIVNPSGGNTSYARNFQGRIIMTRDMSTRTIYMELGSLRSEDTAVYYCARDGSHYDDDGGYYGDAFDIWGQGTMVTVSS VL: not shown | – | – | – | – | – | – | EC50 (read off the curve) [12]: ~40 ng/mL

Reference: US20250298032A1 (INSTITUTE FOR RESEARCH IN BIOMEDICINE, published 2025)
